Measured values from patent US20090149389A1 (PURDUE RESEARCH FOUNDATION, published 2009).

What was measured:
Assay in all cases: cell-based or functional assay
[1] = target: AMPK (r) (rat (r), UniProt Q09137 1-552, limits assumed)
[2] = target: CDKI/cyclinB (h) (human (h), UniProt P06493 1-297)
[3] = target: T1, Flt3 (h) (human (h), UniProt P36888 564-993, limits assumed)
T1 sequence (looked up): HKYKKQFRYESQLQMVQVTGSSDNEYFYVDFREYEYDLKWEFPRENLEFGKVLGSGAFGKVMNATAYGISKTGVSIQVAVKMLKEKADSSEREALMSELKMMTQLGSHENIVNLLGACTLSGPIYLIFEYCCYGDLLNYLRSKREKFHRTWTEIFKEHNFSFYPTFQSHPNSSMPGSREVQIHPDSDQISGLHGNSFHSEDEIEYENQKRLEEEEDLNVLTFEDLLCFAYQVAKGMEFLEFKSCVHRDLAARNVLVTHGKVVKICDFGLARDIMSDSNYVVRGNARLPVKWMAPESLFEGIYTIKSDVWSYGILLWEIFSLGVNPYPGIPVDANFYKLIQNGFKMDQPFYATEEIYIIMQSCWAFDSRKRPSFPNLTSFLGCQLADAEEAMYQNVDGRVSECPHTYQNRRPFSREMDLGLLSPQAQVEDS

[4] = target: T2, IRAK4 (h) (human (h), UniProt Q9NWZ3 1-460, limits assumed)
T2 sequence (looked up): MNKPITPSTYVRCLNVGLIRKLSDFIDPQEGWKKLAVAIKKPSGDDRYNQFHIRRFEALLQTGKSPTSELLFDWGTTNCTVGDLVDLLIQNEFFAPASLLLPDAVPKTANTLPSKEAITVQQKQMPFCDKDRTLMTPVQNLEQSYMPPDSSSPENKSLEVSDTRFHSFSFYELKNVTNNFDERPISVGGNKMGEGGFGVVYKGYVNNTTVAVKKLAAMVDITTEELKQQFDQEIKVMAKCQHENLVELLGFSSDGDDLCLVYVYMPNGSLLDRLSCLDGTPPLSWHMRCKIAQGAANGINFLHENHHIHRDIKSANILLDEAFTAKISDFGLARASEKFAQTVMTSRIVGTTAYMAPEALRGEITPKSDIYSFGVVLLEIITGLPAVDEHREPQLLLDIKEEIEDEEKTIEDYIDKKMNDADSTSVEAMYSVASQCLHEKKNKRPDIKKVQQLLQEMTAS

[5] = target: MAPKI (h) (human (h), UniProt P28482 1-360, limits assumed)
[6] = target: MAPKAP-K2 (h) (human (h), UniProt P49137 46-400, limits assumed)
[7] = target: Met (h) (human (h), UniProt P08581 974-1390, limits assumed)
[8] = target: T3, MKK4 (m) (mouse (m), UniProt P47809 35-397, limits assumed)
T3 sequence (looked up): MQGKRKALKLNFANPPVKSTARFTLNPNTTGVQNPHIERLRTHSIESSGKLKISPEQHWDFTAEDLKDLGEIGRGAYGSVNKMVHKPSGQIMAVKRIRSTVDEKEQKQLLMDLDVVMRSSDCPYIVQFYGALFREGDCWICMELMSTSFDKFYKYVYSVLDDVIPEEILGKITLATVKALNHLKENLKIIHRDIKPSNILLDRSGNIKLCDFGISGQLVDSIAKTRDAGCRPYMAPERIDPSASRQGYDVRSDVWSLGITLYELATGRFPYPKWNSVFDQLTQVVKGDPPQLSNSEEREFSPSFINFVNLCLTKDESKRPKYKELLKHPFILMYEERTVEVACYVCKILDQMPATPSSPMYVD

[9] = target: MSK2 (h) (human (h), UniProt O75676 1-772, limits assumed)
[10] = target: Pim-1 (h) (human (h), UniProt P11309 1-313)
[11] = target: T4, PRAK (UniProt Q8IW41 1-473, limits assumed)
T4 sequence (looked up): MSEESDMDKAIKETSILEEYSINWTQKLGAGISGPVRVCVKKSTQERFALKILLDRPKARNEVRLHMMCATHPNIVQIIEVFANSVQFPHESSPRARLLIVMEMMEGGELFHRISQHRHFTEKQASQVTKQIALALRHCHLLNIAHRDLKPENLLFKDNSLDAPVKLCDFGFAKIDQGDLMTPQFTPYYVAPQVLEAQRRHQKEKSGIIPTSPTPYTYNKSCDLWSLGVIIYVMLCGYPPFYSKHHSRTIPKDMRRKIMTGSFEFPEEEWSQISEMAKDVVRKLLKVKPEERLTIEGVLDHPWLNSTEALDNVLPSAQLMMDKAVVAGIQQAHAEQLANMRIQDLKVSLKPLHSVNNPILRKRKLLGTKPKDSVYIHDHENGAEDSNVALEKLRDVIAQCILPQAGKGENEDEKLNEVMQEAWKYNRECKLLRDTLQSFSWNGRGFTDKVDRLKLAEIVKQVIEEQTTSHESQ

[12] = target: T5, Ret (h) (human (h), UniProt P07949 658-1114, limits assumed)
T5 sequence (looked up): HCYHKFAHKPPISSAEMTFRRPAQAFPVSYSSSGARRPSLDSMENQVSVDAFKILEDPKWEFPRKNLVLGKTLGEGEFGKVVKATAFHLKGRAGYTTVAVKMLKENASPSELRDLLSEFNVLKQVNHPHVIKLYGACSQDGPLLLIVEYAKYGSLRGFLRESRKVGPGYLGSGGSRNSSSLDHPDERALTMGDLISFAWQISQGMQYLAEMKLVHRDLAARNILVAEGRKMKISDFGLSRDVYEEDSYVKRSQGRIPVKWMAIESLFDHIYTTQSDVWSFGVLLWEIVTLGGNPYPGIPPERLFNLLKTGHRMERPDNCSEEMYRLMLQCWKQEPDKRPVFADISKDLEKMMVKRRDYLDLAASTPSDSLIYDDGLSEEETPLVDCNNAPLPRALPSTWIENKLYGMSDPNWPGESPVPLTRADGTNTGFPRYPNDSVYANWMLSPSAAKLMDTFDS

[13] = target: Rsk2 (h) (human (h), UniProt P51812 1-740)
[14] = target: Tie2 (h) (human (h), UniProt Q02763 771-1124, limits assumed)
Sequence of Tie2 (h) (Q02763 771-1124 limits assumed): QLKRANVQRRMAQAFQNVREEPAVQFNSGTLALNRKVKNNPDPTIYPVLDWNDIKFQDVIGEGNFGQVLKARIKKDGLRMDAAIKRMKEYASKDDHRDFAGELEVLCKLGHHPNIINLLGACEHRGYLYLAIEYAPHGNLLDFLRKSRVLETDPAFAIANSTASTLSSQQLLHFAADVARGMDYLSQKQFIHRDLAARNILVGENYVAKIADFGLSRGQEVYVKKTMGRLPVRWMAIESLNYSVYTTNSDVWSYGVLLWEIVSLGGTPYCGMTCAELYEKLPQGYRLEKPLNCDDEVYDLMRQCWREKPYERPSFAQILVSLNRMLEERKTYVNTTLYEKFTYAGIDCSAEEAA

Sequence of Met (h) (P08581 974-1390 limits assumed): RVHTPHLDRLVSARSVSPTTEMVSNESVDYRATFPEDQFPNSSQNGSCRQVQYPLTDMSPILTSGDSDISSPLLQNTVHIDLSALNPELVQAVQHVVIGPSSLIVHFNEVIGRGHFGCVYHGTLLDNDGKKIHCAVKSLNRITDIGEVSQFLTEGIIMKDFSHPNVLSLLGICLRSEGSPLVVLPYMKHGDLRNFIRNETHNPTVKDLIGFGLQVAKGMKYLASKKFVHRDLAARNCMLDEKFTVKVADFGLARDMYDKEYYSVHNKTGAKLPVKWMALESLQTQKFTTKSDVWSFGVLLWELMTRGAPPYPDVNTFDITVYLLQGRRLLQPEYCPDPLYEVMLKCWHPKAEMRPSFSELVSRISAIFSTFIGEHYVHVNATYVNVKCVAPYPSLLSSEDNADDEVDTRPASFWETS
Sequence of CDKI/cyclinB (h) (P06493 whole entry): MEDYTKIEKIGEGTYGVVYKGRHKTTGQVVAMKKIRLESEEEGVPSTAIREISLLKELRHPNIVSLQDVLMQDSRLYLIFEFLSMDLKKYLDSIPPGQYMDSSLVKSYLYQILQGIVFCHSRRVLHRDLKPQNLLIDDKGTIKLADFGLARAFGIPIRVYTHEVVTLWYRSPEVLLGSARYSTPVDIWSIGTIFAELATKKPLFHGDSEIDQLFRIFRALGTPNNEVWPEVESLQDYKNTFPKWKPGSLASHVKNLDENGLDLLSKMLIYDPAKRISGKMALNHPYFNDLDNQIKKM
Sequence of AMPK (r) (Q09137 whole entry): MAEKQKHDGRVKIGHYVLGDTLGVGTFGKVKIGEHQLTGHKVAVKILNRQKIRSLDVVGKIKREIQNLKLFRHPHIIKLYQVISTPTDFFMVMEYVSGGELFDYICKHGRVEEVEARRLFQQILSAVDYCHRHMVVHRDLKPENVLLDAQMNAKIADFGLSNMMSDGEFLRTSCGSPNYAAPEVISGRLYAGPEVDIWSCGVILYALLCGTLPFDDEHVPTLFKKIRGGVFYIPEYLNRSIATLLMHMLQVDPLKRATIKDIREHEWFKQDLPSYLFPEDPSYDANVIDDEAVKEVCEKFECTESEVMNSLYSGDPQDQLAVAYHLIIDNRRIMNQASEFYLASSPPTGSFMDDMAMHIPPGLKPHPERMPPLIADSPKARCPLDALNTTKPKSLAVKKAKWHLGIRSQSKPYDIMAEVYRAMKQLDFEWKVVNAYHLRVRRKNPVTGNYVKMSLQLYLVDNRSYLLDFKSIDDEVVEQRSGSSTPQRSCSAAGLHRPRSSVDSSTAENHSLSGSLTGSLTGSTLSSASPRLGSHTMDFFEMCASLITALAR
Sequence of MAPKAP-K2 (h) (P49137 46-400 limits assumed): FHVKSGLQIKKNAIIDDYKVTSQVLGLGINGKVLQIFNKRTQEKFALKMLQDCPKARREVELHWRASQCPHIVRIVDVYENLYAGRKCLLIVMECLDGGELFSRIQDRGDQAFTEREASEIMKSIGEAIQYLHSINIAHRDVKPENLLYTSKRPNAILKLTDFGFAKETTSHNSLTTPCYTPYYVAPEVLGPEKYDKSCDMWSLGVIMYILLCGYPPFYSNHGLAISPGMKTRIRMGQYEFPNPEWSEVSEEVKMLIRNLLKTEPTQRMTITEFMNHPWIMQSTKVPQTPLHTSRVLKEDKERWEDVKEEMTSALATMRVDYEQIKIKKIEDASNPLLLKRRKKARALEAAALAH
Sequence of MSK2 (h) (O75676 whole entry): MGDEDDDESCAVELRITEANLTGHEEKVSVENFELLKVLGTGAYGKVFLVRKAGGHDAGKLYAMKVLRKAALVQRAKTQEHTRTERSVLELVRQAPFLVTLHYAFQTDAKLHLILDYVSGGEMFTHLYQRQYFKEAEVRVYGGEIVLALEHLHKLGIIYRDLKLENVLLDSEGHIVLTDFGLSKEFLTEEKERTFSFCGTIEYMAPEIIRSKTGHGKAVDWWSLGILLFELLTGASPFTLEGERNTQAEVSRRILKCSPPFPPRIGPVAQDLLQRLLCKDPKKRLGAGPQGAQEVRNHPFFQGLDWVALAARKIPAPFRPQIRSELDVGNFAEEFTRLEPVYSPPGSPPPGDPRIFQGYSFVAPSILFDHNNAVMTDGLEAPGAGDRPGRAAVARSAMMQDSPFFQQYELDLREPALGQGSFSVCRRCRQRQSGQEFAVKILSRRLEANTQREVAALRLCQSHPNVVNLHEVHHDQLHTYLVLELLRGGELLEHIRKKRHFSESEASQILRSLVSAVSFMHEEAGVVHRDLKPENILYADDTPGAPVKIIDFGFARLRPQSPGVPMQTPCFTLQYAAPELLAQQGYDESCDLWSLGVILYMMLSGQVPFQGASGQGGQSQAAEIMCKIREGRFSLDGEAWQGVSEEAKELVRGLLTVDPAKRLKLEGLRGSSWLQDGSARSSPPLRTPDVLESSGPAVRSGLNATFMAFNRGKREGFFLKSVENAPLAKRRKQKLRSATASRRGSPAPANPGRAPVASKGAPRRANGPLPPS
Sequence of Pim-1 (h) (P11309 whole entry): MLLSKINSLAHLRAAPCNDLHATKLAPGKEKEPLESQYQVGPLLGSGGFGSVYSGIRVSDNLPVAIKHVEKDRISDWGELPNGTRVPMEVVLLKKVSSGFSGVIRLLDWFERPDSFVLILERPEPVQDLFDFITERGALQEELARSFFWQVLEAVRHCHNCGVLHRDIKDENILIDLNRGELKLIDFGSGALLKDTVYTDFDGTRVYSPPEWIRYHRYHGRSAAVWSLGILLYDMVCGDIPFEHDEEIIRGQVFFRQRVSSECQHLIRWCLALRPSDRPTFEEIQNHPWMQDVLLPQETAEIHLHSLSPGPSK
Sequence of Rsk2 (h) (P51812 whole entry): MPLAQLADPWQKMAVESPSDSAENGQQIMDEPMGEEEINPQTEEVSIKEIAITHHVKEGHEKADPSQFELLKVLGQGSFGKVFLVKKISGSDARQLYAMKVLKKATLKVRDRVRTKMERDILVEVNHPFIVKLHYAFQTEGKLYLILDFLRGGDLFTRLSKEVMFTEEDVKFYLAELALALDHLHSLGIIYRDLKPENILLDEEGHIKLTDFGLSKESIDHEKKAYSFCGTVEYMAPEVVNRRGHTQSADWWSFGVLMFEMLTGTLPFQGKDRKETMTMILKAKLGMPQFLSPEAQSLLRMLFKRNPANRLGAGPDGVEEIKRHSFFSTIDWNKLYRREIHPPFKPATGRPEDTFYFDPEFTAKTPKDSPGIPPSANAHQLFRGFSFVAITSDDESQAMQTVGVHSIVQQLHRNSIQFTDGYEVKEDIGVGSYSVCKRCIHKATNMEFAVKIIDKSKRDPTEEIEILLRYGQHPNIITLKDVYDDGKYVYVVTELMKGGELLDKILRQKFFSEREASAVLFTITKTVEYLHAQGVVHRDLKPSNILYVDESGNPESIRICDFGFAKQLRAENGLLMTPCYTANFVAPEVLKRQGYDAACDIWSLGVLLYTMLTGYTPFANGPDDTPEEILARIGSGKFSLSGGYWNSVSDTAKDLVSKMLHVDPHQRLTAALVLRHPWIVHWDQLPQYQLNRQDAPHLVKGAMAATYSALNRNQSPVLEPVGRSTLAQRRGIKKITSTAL
Sequence of MAPKI (h) (P28482 whole entry): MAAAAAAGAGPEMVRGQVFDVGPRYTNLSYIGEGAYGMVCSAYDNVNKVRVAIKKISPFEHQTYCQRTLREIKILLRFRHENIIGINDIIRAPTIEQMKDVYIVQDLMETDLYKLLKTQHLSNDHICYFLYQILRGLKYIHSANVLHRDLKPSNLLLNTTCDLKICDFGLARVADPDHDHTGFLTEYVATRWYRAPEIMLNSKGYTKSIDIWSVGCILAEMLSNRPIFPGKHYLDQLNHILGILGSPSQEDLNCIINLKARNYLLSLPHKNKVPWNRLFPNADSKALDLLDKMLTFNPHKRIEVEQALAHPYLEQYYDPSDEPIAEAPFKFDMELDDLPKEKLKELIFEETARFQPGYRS

FAKLAARLYRKALARQLGVAA
Profile-1 @ = 100 µm (kinase profiler assay) [1]: 101
Profile-1 @ = 100 µm (kinase profiler assay) [2]: 36
Profile-1 @ = 100 µm (kinase profiler assay) [3]: 14
Profile-1 @ = 100 µm (kinase profiler assay) [4]: 13
Profile-1 @ = 100 µm (kinase profiler assay) [5]: 104
Profile-1 @ = 100 µm (kinase profiler assay) [6]: 5
Profile-1 @ = 100 µm (kinase profiler assay) [7]: 17
Profile-1 @ = 100 µm (kinase profiler assay) [8]: 90
Profile-1 @ = 100 µm (kinase profiler assay) [9]: 24
Profile-1 @ = 100 µm (kinase profiler assay) [10]: 1
Profile-1 @ = 100 µm (kinase profiler assay) [11]: 131
Profile-1 @ = 100 µm (kinase profiler assay) [12]: 89
Profile-1 @ = 100 µm (kinase profiler assay) [13]: -1
Profile-1 @ = 100 µm (kinase profiler assay) [14]: 0
